Results taken from article PMC2794548, “Real-Time Imaging and Quantification of Amyloid-β Peptide Aggregates by Novel Quantum-Dot Nanoprobes” (PLoS ONE, 2009).

Columns and labels:
[1] = 10–35 µM Aβ42 in phosphate buffer (pH 7.5 or pH 7.4); cited from earlier work
[2] = Kinetic analysis of Aβ40 and Aβ42 aggregations by SDS-PAGE; format: physicochemical, Human; conditions: 50 µM peptide in PBS without SDS, 37°C
Method: These Aβ solutions were diluted at 50 µM in PBS with or without 1 mM SDS, and 5 µl of aliquots were incubated for various time periods at 37°C. The samples were mixed with sample buffer (final concentration: 50 mM Tris-HCl (pH 6.8), 2% SDS, 0.1% bromophenol blue, and 10% glycerol) and immediately electrophoresed using 16.5% Tris-Tricine gels or 16% Tris-Glycine gels. These gels were stained with Coomassie brilliant blue.
After the incubation, these samples were electrophoresed using 16.5% Tris-Tricine (a and c) and 16% Tris-Glycine gels (b and d). […] [1] Schagger H (2006) Tricine-SDS-PAGE. Nat Protoc 1: 16–22. Laemmli UK (1970) Cleavage of structural proteins during the assembly of the head of bacteriophage T4. Nature 227: 680–685. (1.27 MB TIF) Click here for additional data file.

[3] = 4D imaging of Aβ aggregation by swept-field confocal microscopy; format: physicochemical, Human
Method: (a) 4D imaging of Aβ aggregation. […] (b) Time-course of Aβ aggregation. The volumes of Aβ aggregates measured from three 4D experiments (red, blue, and green). The total volume of the observed space is 1.9×10^6 µm^3 (138×138×100 µm).
To remove any aggregates, the mixtures were centrifuged at 10,000×g for 1 min at 4°C. The mixtures (50 µl) were put in microcentrifuge tubes or 96-well glass bottom plates (MatTek). The samples in microcentrifuge tubes were incubated for various time periods at 37°C in an air incubator, and observed by wide-field fluorescence microscopy or electron microscopy. The samples in 96-well glass bottom plates were incubated at 37°C in 5% CO2 in a culture chamber (LiveCell™, Pathology Devices), and directly observed by wide-field fluorescence microscopy or swept-field laser-scanning confocal microscopy [QDAβ: Excitation: 488 nm at 15% power; Emission filter: Chroma Quad Filter (#C68208) for FITC].
QD was excited by an argon laser, and Lysotracker and Mitotracker were excited by an argon/krypton laser.

[4] = target: Aβ42 (Homo sapiens, UniProt P05067); test: Imaging of fibril formation: coaggregation of QDAβ with intact Aβ42, wide-field fluorescence microscopy; format: physicochemical; conditions: 0.1% QDAβ(6)-containing 50 µM Aβ42, 1 day on ice
Sequence of Aβ42 (P05067 672-713 limits assumed): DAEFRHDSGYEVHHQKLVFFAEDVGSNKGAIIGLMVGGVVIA
From the text: (b) Fluorescence intensities of the aggregates in (a). Fluorescence intensities measured from 20 randomly selected fields (100×100 pixel: 8.6×8.6 μm) containing the aggregates are shown as relative % intensity against QDAβ(6) group. *** denotes P<0.001 for QDAβ (6)- versus QDAβ (1)- or QDAβ (0)-samples and ## denotes 0.001<P<0.01 for QDAβ (1)- versus QDAβ (0) samples. Error bars indicate SD (n = 20). […], spread between glass slides and cover slips, and observed by regular microscopy using a 100x objective lens with QD filter set (left micrograph) and […] (right three micrographs). […] The right three micrographs are magnified and brightened micrographs. The top right micrograph is the boxed area in the left micrograph. […] To remove any aggregates, the mixtures were centrifuged at 10,000×g for 1 min at 4°C. The mixtures (50 μl) were put in microcentrifuge tubes or 96-well glass bottom plates (MatTek). […] Supplementary file pone.0008492.s006.tif: Figure S4 Dose- and time-dependent coaggregation. […] (7.12 MB TIF) Click here for additional data file. Supplementary file pone.0008492.s007.tif: Figure S5 Temperature-dependent Aβ aggregation. […] (1.67 MB TIF) Click here for additional data file.

[5] = 0.1% QDAβ(6)-containing 100 µM Aβ42, 37°C, imaged every 30 min over 20 h, three 4D experiments

Row | Substance | lag time of ThT binding [1] | time at which ThT binding reached a plateau [1] [h] | time to formation of trimeric and tetrameric species from the start of incubation ([2]; SDS-PAGE, Coomassie (Fig. S1a)) [h] | lag time of aggregation [3, 5] | time at which aggregation reached a plateau [3, 5] | density of stacked-Aβ aggregates on the glass bottom in a steady state ([3]; estimated from 4D imaging data, 100 µM Aβ42 with 0.1% QDAβ(6)) [mg/mL] | aggregation after incubation on ice [4] | oligomer formation after 5 days ([2]; SDS-PAGE (Fig. S1c, d))
1 | Aβ42: Human amyloid peptide Aβ42 (Biosource) | several minutes | 1 to 2 | ≤ 0.3 | approximately 1.5 h | around 12 h | 32 ± 6 | did not observe aggregation | 
2 | Aβ40: Human amyloid peptide Aβ40 (Biosource) |  |  |  |  |  |  |  | did not form oligomers
